The text below walks through data of patent US20110190477A1 (G2 INFLAMMATION, published 2011).

For experiment [1], the target named is T1, human C5a receptor (human, UniProt P21730 1-350).
T1 chain: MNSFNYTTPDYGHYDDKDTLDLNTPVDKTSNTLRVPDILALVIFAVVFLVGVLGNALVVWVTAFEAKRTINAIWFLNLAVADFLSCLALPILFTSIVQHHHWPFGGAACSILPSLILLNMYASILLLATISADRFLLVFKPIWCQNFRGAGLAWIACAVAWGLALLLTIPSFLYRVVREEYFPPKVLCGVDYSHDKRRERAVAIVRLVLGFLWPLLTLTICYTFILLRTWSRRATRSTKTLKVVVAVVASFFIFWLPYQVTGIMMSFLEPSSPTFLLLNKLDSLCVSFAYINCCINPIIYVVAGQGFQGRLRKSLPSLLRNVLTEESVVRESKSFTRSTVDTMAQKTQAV
The experiment in a line: cell-based or functional assay.

For experiment [2], the target named is T1, human C5a receptor. The experiment can be described thus: flow cytometry of bound hAb-Q (anti-hIgG-FITC) on human neutrophils, post-chemotaxis lower chamber. How it is done: The FACSCalibur flow cytometer was set up with compensation parameters established for channel FL-1. Samples were acquired to exclude dead cells and debris. Neutrophils were identified based on FSC and SSC. The level of bound hAb-Q (anti-hIgG-FITC) or free C5aR (hAb-Q-FITC) was determined by determining the FITC (FL-1) mean fluorescence intensity (MFI) of the neutrophils in a sample.
Four experiments were carried out. Briefly, purified neutrophils isolated from the venous blood of a healthy volunteer were preincubated for 10 min with hAb-Q at concentrations ranging from 0.001 to 100 μg/ml. A small aliquot of this mix was taken to determine the amount of antibody bound receptor (% receptor occupancy) and the remainder was placed in the upper chamber of a transwell plate. C5a (10 nM) was placed in the lower chamber. After 30 min incubation, the number of cells that had migrated into the lower chamber was determined using FACS. The amount of bound antibody on the neutrophils in both the lower and upper chambers at the end of migration was also determined, using FITC-labelled anti-hIgG and flow cytometry. The level of free receptor (no bound antibody) was determined in one experiment by incubating the neutrophils with FITC-labelled hAb-Q before and after migration.

For experiment [3], the target named is T1, human C5a receptor. The experiment in a line: PK/PD model (NONMEM) fitted to serum concentration and receptor occupancy in hC5aR transgenic mice, pharmacology study column. An excerpt: NONMEM VI (non-linear mixed effects modelling software) with first order conditional estimation (FOCE) was used for modelling, and S-PLUS® 8.0 (Insigthful) was used for graphics and data handling. Evaluation of—and discrimination between—intermediate models was based on objective function values and standard graphical evaluation methods. In terms of objective function value, changes in this value were assumed to be chi-squared distributed (for nested models), and criteria for expanding the model were defined and used accordingly.
Toxicokinetics from the toxicology study in transgenic mice and PK/PD data from the pharmacology study was integrated to assess the relationship between pharmacokinetics and occupancy. […] This is consistent with other studies, observing higher clearance for high doses, due to saturation of the FcRN receptor (Hansen and Balthasar, 2002).

Experiment [4] has as its target T2, chimeric receptor 1. HHHH (human, UniProt P21730 1-350).
T2 construct: Transiently expressed on mouse L1.2 cells
T2 chain: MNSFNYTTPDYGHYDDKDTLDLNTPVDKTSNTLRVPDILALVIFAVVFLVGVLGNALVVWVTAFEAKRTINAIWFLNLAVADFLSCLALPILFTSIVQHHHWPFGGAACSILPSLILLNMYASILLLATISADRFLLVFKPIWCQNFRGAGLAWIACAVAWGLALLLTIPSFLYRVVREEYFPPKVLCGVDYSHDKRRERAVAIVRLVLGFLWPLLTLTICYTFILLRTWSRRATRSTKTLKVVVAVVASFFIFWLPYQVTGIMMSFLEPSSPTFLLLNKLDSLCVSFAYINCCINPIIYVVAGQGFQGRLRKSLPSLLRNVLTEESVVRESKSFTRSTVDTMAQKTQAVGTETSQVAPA
The experiment can be described thus: flow cytometry on transiently transfected L1.2 cells. How it is done: A series of chimeric receptors comprising segments of mouse and human C5aR were constructed to identify the region of the C5a receptor that the antibodies bound. […] Each recombinant vector (5 μg diluted in DMEM) encoding a different chimeric receptor was transfected into 5×10⁵ mouse L1.2 cells using Lipofectamine 2000 (Invitrogen). Cells were grown in DMEM or RPMI (Invitrogen) plus 10% foetal bovine serum (Hyclone). After 24 hours or 48 hours, cells were harvested by centrifugation at 1,500 rpm for 5 min and resuspended in FACS buffer (phosphate buffered saline plus 2% bovine serum albumin). For staining with hAb-Q, 0.5×10⁵ transfected cells were incubated with 5 or 10 μg/ml antibody in a volume of 50 μl per well at 4° C. for 20 minutes. Cells were pelleted as above and rinsed 3 times with 150 μl FACS buffer before addition of 50 μl FITC-conjugated anti-human IgG diluted 1:200 or 1:300 (Sigma, F1641). This mix was incubated for 20 min at 4° C. before cells were pelleted, washed with FACS buffer 3 times and finally resuspended in 150-200 μl FACS buffer. Samples were analysed on a FACS Calibur (BD Biosciences).
To confirm that the humanised antibody hAb-Q, which was derived from mouse mAb 7F3 by CDR grafting, and therefore should contain the same antigen-binding site, had the same staining pattern as 7F3, transiently transfected cells expressing the different chimeric human/mouse C5aR were stained with hAb-Q and analysed by flow cytometry. The pattern of staining by hAb-Q was identical to that observed with 7F3. There was no staining by the secondary antibody (anti-hIgG-FITC) alone.

B1: humanized anti-C5aR antibody hAb-Q (antibody, human IgG4 S228P, kappa)
light: DVVMTQSPLSLPVTLGEPASISCRSSQSLVHSNGNTYLHWYLQKPGQSPQLLIYKVSNRFSGVPDRFSGSGSGTDFTLKISRVEAEDVGVYFCSQSTLVPLTFGQGTKLEIKRTVAAPSVFIFPPSDEQLKSGTASVVCLLNNFYPREAKVQWKVDNALQSGNSQESVTEQDSKDSTYSLSSTLTLSKADYEKHKVYACEVTHQGLSSPVTKSFNRGEC
heavy: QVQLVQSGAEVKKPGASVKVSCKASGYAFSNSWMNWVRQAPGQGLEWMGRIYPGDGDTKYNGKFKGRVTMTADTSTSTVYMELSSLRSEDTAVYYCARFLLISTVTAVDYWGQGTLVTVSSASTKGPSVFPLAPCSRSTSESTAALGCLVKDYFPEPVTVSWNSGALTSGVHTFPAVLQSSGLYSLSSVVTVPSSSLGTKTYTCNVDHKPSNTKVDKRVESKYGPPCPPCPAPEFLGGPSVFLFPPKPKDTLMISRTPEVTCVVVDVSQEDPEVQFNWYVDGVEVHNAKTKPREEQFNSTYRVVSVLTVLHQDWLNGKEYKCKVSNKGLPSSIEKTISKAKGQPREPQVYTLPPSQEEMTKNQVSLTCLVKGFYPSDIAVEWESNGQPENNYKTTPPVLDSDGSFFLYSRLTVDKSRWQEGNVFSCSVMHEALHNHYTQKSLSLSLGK
notes: IgG4 with the Ser228Pro mutation; also called antibody Q; anti-C5aR ab
Turning to B1, in the experiment with human C5a receptor [1], the “Ab conc. tested but not effective at blocking Ca2+-flux (human neutrophils, 1 nM C5a)” value was found to be 0.5 µg/mL. Also, the EC50 with human C5a receptor [2] is 1.1 µg/mL. The dissociation constant (Kd) with human C5a receptor [3] amounted to 0.175 µg/mL. In addition, in experiment [4], the binding result is listed as “binds”.
